We go through eight molecules from US20220031857A1 (OSSIANIX, published 2022).

The target of test [1] is T1, recombinant mouse TfR1 (transferrin receptor 1) (mouse, UniProt Q62351 89-763).
T1 construct: Bought recombinant His-tagged protein; also called mTfR1
Briefly: ELISA, plate coated with 1 µg/ml recombinant mouse TfR1, purified VNAR-Fc titrated, 4-parameter fit. Here is the method:
(§1) It was previously reported that affinity might play a crucial role in TfR1 mediated brain penetration. […] Affinity estimation and unspecific binding was initially assessed using ELISA for human and mouse TfR1.
(§2) The next day the plates were blocked with […] with 0.1% Tween20 (PBST) for 1 hour at room temperature. Transfected cells were spun down at 2000 rpm for 10 minutes and the collected supernatant was mixed with milk in PBST to a final 2.5% concentration and incubated for 30 minutes. 100 μl of blocked supernatant was transferred into coated plates and incubated for 1 hour. […] The plates were washed and developed with TMB detection solution before stopping the reaction with 1% HCl. Absorbance was measured at 450 nm. A VNAR-Fc at know concentration was used for standard curve to calculate VNAR-Fc expression level.
(In an ELISA, binding on a coated surface is turned into a signal by an enzyme label.)

The target of test [2] is T2, recombinant human TfR1 (transferrin receptor 1) (human, UniProt P02786 89-760).
T2 construct: Bought recombinant His-tagged protein; also called hTfR1
T2 sequence (P02786 89-760 limits assumed): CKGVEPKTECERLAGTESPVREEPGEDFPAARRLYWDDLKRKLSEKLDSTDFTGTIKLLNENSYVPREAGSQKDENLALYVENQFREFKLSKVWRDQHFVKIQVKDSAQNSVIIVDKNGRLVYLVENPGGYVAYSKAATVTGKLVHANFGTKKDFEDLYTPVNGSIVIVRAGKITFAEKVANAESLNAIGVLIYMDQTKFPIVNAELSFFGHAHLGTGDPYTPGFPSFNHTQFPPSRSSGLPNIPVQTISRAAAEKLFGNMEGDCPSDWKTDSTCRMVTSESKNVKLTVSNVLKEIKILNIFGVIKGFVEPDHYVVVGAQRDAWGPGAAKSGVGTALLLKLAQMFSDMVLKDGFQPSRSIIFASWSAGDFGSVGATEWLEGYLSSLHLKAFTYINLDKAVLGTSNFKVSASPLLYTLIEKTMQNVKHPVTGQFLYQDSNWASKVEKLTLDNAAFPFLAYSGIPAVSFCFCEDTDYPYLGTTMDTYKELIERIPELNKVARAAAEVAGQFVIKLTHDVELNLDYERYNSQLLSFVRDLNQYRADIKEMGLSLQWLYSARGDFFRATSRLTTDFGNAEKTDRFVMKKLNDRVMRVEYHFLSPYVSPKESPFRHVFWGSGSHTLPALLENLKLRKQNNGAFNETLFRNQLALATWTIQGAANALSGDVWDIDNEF
Briefly: ELISA, plate coated with 1 µg/ml recombinant human TfR1, purified VNAR-Fc titrated, 4-parameter fit. Here is the method:
as §1, §2

For test [3], the target named is T3, recombinant mouse TfR2 (mouse, UniProt Q9JKX3 103-798, limits assumed).
T3 construct: Negative control protein
T3 sequence (looked up): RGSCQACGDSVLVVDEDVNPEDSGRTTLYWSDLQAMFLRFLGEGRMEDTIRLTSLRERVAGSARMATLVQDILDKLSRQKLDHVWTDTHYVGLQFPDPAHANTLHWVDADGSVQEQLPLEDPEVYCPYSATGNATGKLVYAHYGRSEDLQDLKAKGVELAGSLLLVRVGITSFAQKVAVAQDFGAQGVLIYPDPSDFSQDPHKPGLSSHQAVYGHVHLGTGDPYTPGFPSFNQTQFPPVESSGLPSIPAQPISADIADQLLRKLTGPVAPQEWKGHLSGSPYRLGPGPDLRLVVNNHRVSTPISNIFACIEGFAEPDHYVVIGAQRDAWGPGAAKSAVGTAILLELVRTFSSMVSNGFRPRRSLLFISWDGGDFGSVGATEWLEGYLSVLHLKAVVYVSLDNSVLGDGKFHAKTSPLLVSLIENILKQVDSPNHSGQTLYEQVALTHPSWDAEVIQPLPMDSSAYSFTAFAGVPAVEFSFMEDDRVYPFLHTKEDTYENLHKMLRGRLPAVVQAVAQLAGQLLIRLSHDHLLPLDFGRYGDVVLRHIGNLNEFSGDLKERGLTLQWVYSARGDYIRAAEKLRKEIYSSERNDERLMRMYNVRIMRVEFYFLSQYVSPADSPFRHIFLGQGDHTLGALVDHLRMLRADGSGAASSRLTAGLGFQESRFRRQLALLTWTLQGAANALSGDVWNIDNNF
The test can be described thus: ELISA with Expi293 culture medium used directly, coated mouse TfR2, anti-Fc detection. As for the experimental part: (§3) FIG. 6. […] The VNAR-Fc fusion proteins were transiently expressed using Expi293 expression system. VNAR-Fc constructs contained signal peptide sequence in order to be secreted. Cell growth media was used directly in ELISA. HSA and mouse TfR2 were used as negative controls for unspecific binding. A clone in position 52 represents untransfected cells. Total Fc concentration was measured with capture and detection anti-Fc antibody pair using irrelevant VNAR-Fc at known concentration for standard curve.
as §2

The target of test [4] is T4, human serum albumin (human, UniProt P02768 25-609).
T4 construct: Negative control protein; also called HSA
T4 sequence (P02768 25-609 limits assumed): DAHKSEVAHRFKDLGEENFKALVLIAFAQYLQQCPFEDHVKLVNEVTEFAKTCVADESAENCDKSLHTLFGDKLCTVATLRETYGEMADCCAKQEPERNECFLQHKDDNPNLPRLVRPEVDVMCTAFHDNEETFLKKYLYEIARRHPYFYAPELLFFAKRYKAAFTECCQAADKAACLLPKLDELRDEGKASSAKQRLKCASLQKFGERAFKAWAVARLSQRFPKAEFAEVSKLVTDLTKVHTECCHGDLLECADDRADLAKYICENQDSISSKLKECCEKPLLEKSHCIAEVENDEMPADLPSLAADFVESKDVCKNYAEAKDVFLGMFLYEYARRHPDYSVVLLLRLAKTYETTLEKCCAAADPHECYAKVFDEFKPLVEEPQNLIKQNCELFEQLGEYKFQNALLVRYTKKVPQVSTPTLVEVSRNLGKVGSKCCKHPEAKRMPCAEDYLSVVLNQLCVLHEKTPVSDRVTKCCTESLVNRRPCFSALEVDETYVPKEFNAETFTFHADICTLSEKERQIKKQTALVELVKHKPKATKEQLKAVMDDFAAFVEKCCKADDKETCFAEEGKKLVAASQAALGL
The test can be described thus: ELISA with Expi293 culture medium used directly, coated HSA, anti-Fc detection. As for the experimental part:
as §3, §2

For test [5], the target named is T2, recombinant human TfR1 (transferrin …). The test can be described thus: phage ELISA.
In test [6] the target is T1, recombinant mouse TfR1 (transferrin …). Briefly: phage ELISA.
Test [7] deals with T4, human serum albumin. The test can be described thus: phage ELISA.
For test [8], the target named is T3, recombinant mouse TfR2. Briefly: phage ELISA.
The target in test [9] is T2, recombinant human TfR1 (transferrin …). Briefly: Octet, human TfR1 immobilised; 8D3 as first antibody, which does not bind human TfR1 (grey column); white cell. Here is the method:
FIGS. 15A and 15B. Epitope binning by cross-competition binding to mouse and human TfR1. VNAR-Fc fusion proteins were tested for cross-blocking in a pairwise manner against mouse (A) and human TfR1 (B) immobilised on biosensors using the Octet platform.
A series of biochemical parameters was examined to further characterize the panel VNAR to TfR1 obtained from in vivo phage display selections. Epitope binning experiments were performed to assess whether the VNARs could compete against each other for binding to either the mouse or human TfR1. […] Because each VNAR binds via a unique CDR3 region with a different structural topography, steric interactions could be important efficient transcytosis.
A general note: BLI is a label-free optical method that tracks binding on a fibre tip over time.

The target in test [10] is T1, recombinant mouse TfR1 (transferrin …). The test can be described thus: ELISA on mouse TfR1.
The target is the same in test [11]. Briefly: Octet, mouse TfR1 on anti-His biosensors, analyte 10 nM, PBS pH 6.0. Here is the method: (§4) Binding kinetics of selected VNAR-Fcs to mouse TfR1 at pH 7.2 and pH 6.0 was measured by […] (Octet). Mouse TfR1 (10 μg/ml) was immobilised on anti-His biosensors and the binding kinetics of VNAR-Fcs and 8D3 antibody (10 nM) was measured at pH 7.2 and pH 6.0 in phosphate buffered saline (PBS) (Table 8).

Test [12] has the same target. The test can be described thus: Octet, mouse TfR1 on anti-His biosensors, analyte 10 nM, PBS pH 7.2. As for the experimental part:
as §4

Test [13] addresses T2, recombinant human TfR1 (transferrin …). Briefly: SPR (Biacore), single-cycle kinetics, His-tagged TfR1 captured, VNAR-Fc injected. As for the experimental part:
(§5) Binding kinetics of VNAR-Fcs was determined by surface plasmon resonance (Biacore T200, GE Healthcare). CM5 chips were coated with anti-His antibodies (His Capture Kit, GE Healthcare) as recommended by the manufacturer and human or mouse his-tagged TfR1 (SinoBiological) at 10 ug/mL in HBS-EP+ (GE Healthcare) was captured at flow rate 10 ul/min (contact time 120 s). […] A flow cell without TfR1 captured served as a reference. Sensorgrams were fitted and kinetic constants were determined using Biacore T200 Evaluation software. Chips were regenerated in 10 mM Glycine-HCl, pH 1.5 (contact time: 120 s at flow rate 30 ul/min).

Test [14] addresses T1, recombinant mouse TfR1 (transferrin …). The test is described as above. Here is the method: as §5

T1 sequence (Q62351 89-763 limits assumed): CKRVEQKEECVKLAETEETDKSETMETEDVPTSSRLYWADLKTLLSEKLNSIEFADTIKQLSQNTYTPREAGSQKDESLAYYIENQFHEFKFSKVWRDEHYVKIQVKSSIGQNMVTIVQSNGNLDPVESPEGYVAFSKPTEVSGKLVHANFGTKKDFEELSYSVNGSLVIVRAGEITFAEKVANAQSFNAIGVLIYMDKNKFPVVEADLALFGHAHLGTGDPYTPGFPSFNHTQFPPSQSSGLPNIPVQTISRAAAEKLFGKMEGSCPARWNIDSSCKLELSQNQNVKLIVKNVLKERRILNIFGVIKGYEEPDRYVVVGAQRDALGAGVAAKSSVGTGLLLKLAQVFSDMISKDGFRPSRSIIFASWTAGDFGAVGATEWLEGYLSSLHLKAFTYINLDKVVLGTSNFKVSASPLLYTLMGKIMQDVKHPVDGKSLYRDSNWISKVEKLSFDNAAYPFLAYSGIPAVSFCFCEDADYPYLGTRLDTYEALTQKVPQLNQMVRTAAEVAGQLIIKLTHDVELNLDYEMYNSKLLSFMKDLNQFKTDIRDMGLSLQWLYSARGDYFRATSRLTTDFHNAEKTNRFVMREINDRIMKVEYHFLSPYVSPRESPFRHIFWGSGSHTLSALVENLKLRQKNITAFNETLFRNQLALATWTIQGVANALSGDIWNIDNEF

B1: Clone 7 VNAR-Fc fusion protein (Fc fusion)
chain: ARVDQTPQTITKETGESLTINCVLRDSNCELSSTYWYRKKSGSTNEARISKGGRYVETVNSGSKSFSLKINDLTVEDSGTYRCNVLTTDSYDLGDVYGDGTVVTVNA
notes: Bivalent VNAR-Fc; not shown: glycine/serine linker (GxSx)n extending the hinge; human IgG1 Fc (hinge, CH2, CH3) of pFUSE-hIgG1e3-Fc2; G236 also deleted
Consider B1, for which the EC50 (in general, the concentration at which the effect is half-maximal) in test [1] turned out to be 5370 nM; in [2], 463 nM. The binding result in [3] and in [4] was “no binding” each time.

B2: SEQ ID NO 51 (VNAR clone displayed on phage) (VNAR)
VNAR: ARVDQTPRSVTKETGESLTINCVLRDASYALGSTCWYRKKSGSTNEESISKGGRYVETVNSGSKSFSLRINDLTVEDSGTYRCNVIQYLYLGSYFACDVYGGGTVVTVNA
notes: shark VNAR domain on M13 phage; coat-protein fusion not described
Regarding B2, the binding result is listed as “binds” in test [5], “binds” in [6], “no binding” in test [7] and “no binding” in [8].

B3: Clone 12 VNAR-Fc fusion protein (Fc fusion)
chain: ARVDQTPQTITKETGESLTINCVLRDSICALSSTHWYRKKSGSTNEESISKGGRYVETVNSGSKSFSLRINDLTVEDSGTYRCKVVRSGVGPCWADVYGGGTAVTVNA
notes: as for B1
For B3, the EC50 in test [1] turned out to be 1560 nM; in test [2], 151 nM. In addition, the “Octet signal as second antibody after 8D3” value (“Octet signal” for short) in test [9] came to 0.403. Besides, the binding result in test [3] and in [4] was “no binding” throughout.

B4: Clone 1 VNAR-Fc fusion protein (Fc fusion)
chain: ARVDQTPQTITKETGESLTINCVLRDNNCALSTTYWYRKKSGSTNEENISKGGRYVETVNSGSKSFSLKINDLTVEDSGTYRCNVRDVQACGNDWVWLDVYGGGTVVTVNA
notes: Bivalent VNAR-Fc; also called clone 1-Fc; not shown: glycine/serine linker (GxSx)n extending the hinge; human IgG1 Fc (hinge, CH2, CH3) of pFUSE-hIgG1e3-Fc2; G236 also deleted
For the molecule B4, the EC50 in test [10] worked out at 4.83 nM; in test [1], 15.9 nM; in test [2] it was 4.67 nM. Further, the dissociation constant (Kd) (commonly the constant that tells how readily two partners part at equilibrium) in test [11] turned out to be 0.541 nM; in [12] it was 0.363 nM; in [13], 1.87 nM; in [14] it was 3.34 nM. In addition, the koff – broadly, a measure of how fast the partners let go of each other – came out at 0.00036 s⁻¹ in test [11], 0.000292 s⁻¹ in test [12], 0.000123 s⁻¹ in test [13] and 0.00025 s⁻¹ in [14]. In addition, the kon (commonly the rate constant with which the complex forms) in test [11] stood at 666000 M⁻¹ s⁻¹; in test [12], 804000 M⁻¹ s⁻¹; in [13] it was 66000 M⁻¹ s⁻¹; in test [14], 74700 M⁻¹ s⁻¹. The “Octet signal” value in [9] was found to be 0.329. Moreover, the binding result in test [3] and in test [4] was “no binding” throughout.

B5: IDUA-clone 1-hFc (Fc fusion)
chain (part 1 of 2): B4 chain
chain (part 2 of 2): APHLVHVDAARALWPLRRFWRSTGFCPPLPHSQADQYVLSWDQQLNLAYVGAVPHRGIKQVRTHWLLELVTTRGSTGRGLSYNFTHLDGYLDLLRENQLLPGFELMGSASGHFTDFEDKQQVFEWKDLVSSLARRYIGRYGLAHVSKWNFETWNEPDHHDFDNVSMTMQGFLNYYDACSEGLRAASPALRLGGPGDSFHTPPRSPLSWGLLRHCHDGTNFFTGEAGVRLDYISLHRKGARSSISILEQEKVVAQQIRQLFPKFADTPIYNDEADPLVGWSLPQPWRADVTYAAMVVKVIAQHQNLLLANTTSAFPYALLSNDNAFLSYHPHPFAQRTLTARFQVNNTRPPHVQLLRKPVLTAMGLLALLDEEQLWAEVSQAGTVLDSNHTVGVLASAHRPQGPADAWRAAVLIYASDDTRAHPNRSVAVTLRLRGVPPGPGLVYVTRYLDNGLCSPDGEWRRLGRPVFPTAEQFRRMRAAEDPVAAAPRPLPAGGRLTLRPALRLPSLLLVHVCARPEKPPGQVTRLRALPLTQGQLVLVWSDEHVGSKCLWTYEIQFSQDGKAYTPVSRKPSTFNLFVFSPDTGAVSGSYRVRALDYWARPGPFSDPVPYLEVPVPRGPPSPGNP
notes: Order of the parts follows the text's 'VNAR-Fc-IDUA'; Made in CHO cells; also called clone 1 VNAR-Fc-IDUA fusion protein; not shown: human Fc fragment (hFc)
B5: the EC50 in [10] was found to be 7.24 nM.

B6: Clone 16 VNAR-Fc fusion protein (Fc fusion)
chain: ARVDQTPQTITKETGESLTINCVLRDSNCALPSTYWYRKKSGSTNEESISKGGRYVETVNSGSKSFSLRINDLTVKDSGTYRCKVDLPRYLCFSQYGRWYDVYGDGTAVTVNA
notes: as for B1
B6: the 50% effective concentration (EC50) was found to be 7180 nM in test [1] and 3110 nM in test [2].

B7: Clone 10 VNAR-Fc fusion protein (Fc fusion)
chain: ARVDQTPQTITKETGESLTINCVLRDSNCALSSTYWYRKKSGSTNEENISKGGRYVETVNSGSKSFSLRINDLTVEDSGTYRCNVVQYPSYNNYFWCDVYGDGTAVTVNA
notes: Bivalent VNAR-Fc; also called clone 10-Fc; Clone 10-hFc; not shown: glycine/serine linker (GxSx)n extending the hinge; human IgG1 Fc (hinge, CH2, CH3) of pFUSE-hIgG1e3-Fc2; G236 also deleted
For the molecule B7, the EC50 in [10] came out at 2.96 nM; in test [1] it was 11.9 nM; in test [2] it was 2.45 nM. In addition, the Kd in [11] amounted to 0.419 nM; in test [12], 0.0703 nM; in test [13] it was 0.523 nM; in test [14], 0.408 nM. In addition, the koff in test [11] was found to be 0.0003 s⁻¹; in test [12], 4.43e-05 s⁻¹; in test [13], 0.00016 s⁻¹; in test [14], 0.000116 s⁻¹. In addition, the kon in [11] was found to be 715000 M⁻¹ s⁻¹; in test [12], 630000 M⁻¹ s⁻¹; in [13] it was 306000 M⁻¹ s⁻¹; in test [14], 285000 M⁻¹ s⁻¹. In addition, the “Octet signal” value in [9] was 0.546. In addition, the binding result in test [3] and in test [4] was “no binding” throughout.

B8: IDUA-clone 10-hFc (Fc fusion)
chain (part 1 of 2): B7 chain
chain (part 2 of 2): B5 chain (part 2 of 2)
notes: Order of the parts follows the text's 'VNAR-Fc-IDUA'; Made in CHO cells; also called clone 10 VNAR-Fc-IDUA fusion protein; not shown: human Fc fragment (hFc)
With B8, the EC50 in test [10] is 8.33 nM.
